According to patent US20240360228A1 (BIOLEGEND, published 2024):

Tests used:
[1] = biological target: T1, human chemokine (C-C motif) receptor 8 (CCR8) (human, UniProt P51685 1-355); assay: flow cytometry blocking, PBMC CCR8+ CD4+ cells; competitor PE-ABII (its MFI is read)
T1 construct: On human peripheral blood lymphocytes / PBMC (native) or on human CCR8 GFP-transfected Ba/F3 cells; also called hCCR8; human CCR8
Method: (§1) For blocking studies, 100 μL of the cell suspension were incubated with 10 μg purified isotype control, AB1, AB2, AB3, AB4, AB5, AB8, AB9, AB10, AB11, AB12, AB13, AB14, AB15, and Commercial ABI antibodies, or isotype control, as blocking agents.
(§2) After incubation with the blocking agent, the cells were incubated with 0.25 μg of the indicated PE-conjugated antibody plus anti-human CD4 APC or anti-human CD3 for another 15 minutes in the dark and then washed 2 times with Cell Staining Buffer, and acquired in a FACSCanto II flow cytometer (BD Biosciences); the data was analyzed using FCS Express (De Novo Software); MFI correspond to the CCR8+ CD4+ lymphocytes or CCR8+ CD3+ lymphocytes.
(§3) Percentage original MFI was calculated by dividing the MFI of samples blocked with AB1, AB2, AB3, AB4, AB5, AB6, AB7, AB8, AB9, AB10, AB11, AB12, AB13, AB14, AB15, and Commercial ABI antibodies, by the MFI of samples blocked with the corresponding isotype control. This value was subtracted from 100 to get a blocking percentage. The formula is shown below: […]

[2] = biological target: T1, human chemokine (C-C motif) receptor 8 …; assay: flow cytometry blocking, PBMC CCR8+ CD4+ cells; competitor PE-AB12 (its MFI is read)
Method: as §1, §2, §3

[3] = biological target: T1, human chemokine (C-C motif) receptor 8 …; assay: flow cytometry blocking, PBMC CCR8+ CD4+ cells; competitor PE-AB14 (its MFI is read)
Method: as §1, §2, §3

[4] = biological target: T1, human chemokine (C-C motif) receptor 8 …; assay: flow cytometry blocking, PBMC CCR8+ CD4+ cells; competitor PE-AB11 (its MFI is read)
Method: as §1, §2, §3

[5] = biological target: T1, human chemokine (C-C motif) receptor 8 …; assay: flow cytometry blocking, PBMC CCR8+ CD4+ cells; competitor PE-AB1 (its MFI is read)
Method: as §1, §2, §3

[6] = biological target: T1, human chemokine (C-C motif) receptor 8 …; assay: flow cytometry blocking, PBMC CCR8+ CD4+ cells; competitor PE-AB4 (its MFI is read)
Method: as §1, §2, §3

[7] = biological target: T1, human chemokine (C-C motif) receptor 8 …; assay: flow cytometry blocking, PBMC CCR8+ CD4+ cells; competitor PE-AB3 (its MFI is read)
Method: as §1, §2, §3

[8] = biological target: T1, human chemokine (C-C motif) receptor 8 …; assay: flow cytometry blocking, PBMC CCR8+ CD4+ cells; competitor PE-AB5 (its MFI is read)
Method: as §1, §2, §3

[9] = biological target: T1, human chemokine (C-C motif) receptor 8 …; assay: cell-based or functional assay
[10] = biological target: T1, human chemokine (C-C motif) receptor 8 …; assay: flow cytometry blocking, PBMC CCR8+ CD4+ cells; competitor PE-AB10 (its MFI is read)
Method: as §1, §2, §3

[11] = biological target: T1, human chemokine (C-C motif) receptor 8 …; assay: flow cytometry blocking, PBMC CCR8+ CD4+ cells; competitor PE-AB13 (its MFI is read)
Method: as §1, §2, §3

[12] = biological target: T1, human chemokine (C-C motif) receptor 8 …; assay: flow cytometry blocking, PBMC CCR8+ CD4+ cells; competitor PE-AB2 (its MFI is read)
Method: as §1, §2, §3

[13] = biological target: T1, human chemokine (C-C motif) receptor 8 …; assay: flow cytometry blocking, PBMC CCR8+ CD4+ cells; competitor PE-AB15 (its MFI is read)
Method: as §1, §2, §3

[14] = biological target: T1, human chemokine (C-C motif) receptor 8 …; assay: flow cytometry blocking, PBMC CCR8+ CD4+ cells; competitor PE-AB6 (its MFI is read)
Method: as §1, §2, §3

T1 sequence (P51685 whole entry): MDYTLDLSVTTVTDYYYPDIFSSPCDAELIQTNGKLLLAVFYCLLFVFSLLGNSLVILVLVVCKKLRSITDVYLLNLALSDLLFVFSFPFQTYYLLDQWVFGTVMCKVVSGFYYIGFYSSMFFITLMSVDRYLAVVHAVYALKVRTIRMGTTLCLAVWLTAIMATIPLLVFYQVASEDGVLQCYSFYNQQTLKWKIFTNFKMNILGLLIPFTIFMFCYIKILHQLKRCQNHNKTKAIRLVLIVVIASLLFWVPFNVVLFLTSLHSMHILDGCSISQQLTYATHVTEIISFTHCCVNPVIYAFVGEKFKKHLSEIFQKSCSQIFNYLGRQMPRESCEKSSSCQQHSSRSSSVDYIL

% Blocking [1] [%]	MFI [1]	% Blocking [2] [%]	MFI [2]	% Blocking [3] [%]	MFI [3]	% Blocking [4] [%]	MFI [4]	% Blocking [5] [%]	MFI [5]	% Blocking [6] [%]	MFI [6]	% Blocking [7] [%]	MFI [7]	% Blocking [8] [%]	MFI [8]	% hCCR8-Ba/F3 - THP-1 complexes [9] [%]	% Blocking [10] [%]	MFI [10]	% Blocking [11] [%]	Binder	other results
9.26	1000	43.3	553	-237	2980	44.4	501	-39.8	916	-39.4	951	-23.3	855	-29.2	969	0.97	28.6	720	38.4	AB14 (antibody, V domains shown, Hybridoma monoclonal; also called antibody 14; clone 14) VH: EVQLVESGGGLVQPKGSLKLSCAASGFTFNTYAMNWVRQAPGKGLEWVARIRSKSNNYATYYVDSVKDRFTISRDDSQSMLYLQINNLKTEDTAMYYCVRGRELGPYSAMDYWGQGTSVTVSS VL: DIVMTQAAPSVPVTPGESVSISCRSSKSLLHSNGNTYLYWFLQRPGQSPQLLIYRMSNLASGVPDRFSGSGSGTAFTLRISRVEAEDVGLYYCMQHLEYPFTFGGGTKLEIK	MFI [11]: 577; % Blocking [12]: -32.6%; MFI [12]: 888; % Blocking [13]: -218%; MFI [13]: 2520; % Blocking [14]: -23.3%; MFI [14]: 966
22.9	854	-5.38	1030	100	0	23.6	689	-45.4	953	-54.7	1060	-27.5	885	-36.2	1020	1.56	5.71	950	14.2	AB12 (antibody, V domains shown, Hybridoma monoclonal; also called antibody 12; clone 12) VH: EVQLVESGGGLVQPKGSLKLSCAASGFAFNTYAMNWVRQAPGKGLEWIARLRSKSNFYATYYADSVKDRFTISRDDSQSMLYLQMNNLKTEDTAVYYCVRGRELGPSYAMDYWGQGTSVTVSS VL: DIVMTQAAPSVPVTPGESVSISCRSSKSLLHSNGNTYLYWFLQRPGQSPQLLIYRMSNLASGVPDRFSGSGSGTAFTLRISRVEAEDVGVYYCMQHLEYPYTFGGGTKLEIK	MFI [11]: 803; % Blocking [12]: -46.8%; MFI [12]: 983; % Blocking [13]: 7.39%; MFI [13]: 734; % Blocking [14]: -24.1%; MFI [14]: 973
15	942	-21.6	1190	27.5	642	39.5	545	-61.8	1060	-41.9	969	-38.4	961	-32.8	995	0.47	-32.5	1340	2.16	AB10 (antibody, V domains shown, Hybridoma monoclonal; also called antibody 10; clone 10) VH: EVQLVETGGGLVQPKGSLKLSCAVSGFTFKTNAMNWVRQAPGKGLEWVARIRSKSNKYATYYADSVKDRFTISRDDSQSMLYLQMNNLKTEDTAMYYCVRGSEMGYYYAMDYWGQGTSVTVSS VL: DIVMTQAAPSVPVTPGESVSISCRSSKSLLHSNGNTYLYWFLQRPGQSPQLLIYRMSNLASGVPDRFSGSGSGTAFTLRISRVEAEDVGVYYCMQHLEYPFTFGGGTKLEIK	MFI [11]: 916; % Blocking [12]: -45.2%; MFI [12]: 972; % Blocking [13]: -0.06%; MFI [13]: 793; % Blocking [14]: -26.3%; MFI [14]: 990
2.87	1080	-6.83	1040	6.44	829	-4.76	944	28.8	467	100	0	48.3	359	25.7	557	0.6	0.2	1010	1.62	AB1 (antibody, V domains shown, Hybridoma monoclonal (mice or rats immunised); Used purified and PE-conjugated; also called antibody 1; clone 1) VH: QVQLKESGPGLVKPSETLSLTCTVSGFSLTSYHISWVRQPPGKGLEWMGVIWGDGSKTYNSALKSRLSISRDTSKSQVFLKMRSLKTEDTATYYCARGGDSGFAYWGQGTLVTVSS VL: DIQMTQSPASLSASLEEIVTITCQASQDIGNWLSWYQQKPGKSPQLLIYGTTNLADGVPSRFSGSRSGTQYSLKISRLQVEDIGIYYCLQAYSVPLTFGSGTKLEIK	MFI [11]: 921; % Blocking [12]: 46.8%; MFI [12]: 356; % Blocking [13]: 1.66%; MFI [13]: 780; % Blocking [14]: 40.2%; MFI [14]: 469
3.05	1070	-7.35	1050	-2.68	910	-4.37	941	36.5	416	34.6	446	100	0	38.8	459	0.74	-1.1	1020	7.12	AB3 (antibody, V domains shown, Hybridoma monoclonal; also called antibody 3; clone 3) VH: QVQLKESGPGLVKPSETLSLTCTVSGFSLTSYHISWVRQPPGKGLEWMGVIWGDGKTTYNSALKSRLSISRDTSKSQVFLKMNSLKTEDTATYYCARGGDSGFAYWGQGTLVTVSS VL: DIQMTQSPASLSASLEEIVTITCQASQDIGNWLSWYQQKPGKSPQLLIYGTTNLADGVPSRFSGSRSGTQYSLKISRLQVEDIGIYYCLQAYSVPLTFGSGTKLEIK	MFI [11]: 870; % Blocking [12]: 37%; MFI [12]: 422; % Blocking [13]: -10.2%; MFI [13]: 874; % Blocking [14]: 45.5%; MFI [14]: 427
-7.57	1190	-4.04	1020	0.97	878	-13.3	1020	100	0	-61.4	1100	48.2	359	45.1	411	0.43	-12.2	1130	-3.67	AB4 (antibody, V domains shown, Hybridoma monoclonal; also called antibody 4; clone 4) VH: QVQLKESGPGLVKPSETLSLTCTVSGFSLTGYHVSWVRQPPGKGLEWMGVIWGDGRTTYNSALKSRLSISRDTSKSQVFLKMSSLKTEDTATYYCARGGDSGFAYWGQGTLVTVSS VL: DIQMTQSPASLSASLEEIVTITCQASQDIGNWLSWYQQKPGKSPQLLIYGATSLADGVPSRFSGSRSGTQFSLKISRLQVEDIGIYYCLQAYIVPLTFGSGTKLESK	MFI [11]: 971; % Blocking [12]: 45.8%; MFI [12]: 363; % Blocking [13]: -7.83%; MFI [13]: 855; % Blocking [14]: 47.3%; MFI [14]: 413
